Test results as given in patent publication US20250186602A1, “HUMANIZED ANTIBODY THAT BONDS TO EVA1 PROTEIN OR FUNCTIONAL FRAGMENT THEREOF, ANTIBODY-DRUG CONJUGATE AND CHIMERIC ANTIGEN RECEPTOR” (CURED INC., priority 2022, published 2025).
“Also recorded” adds a separate entry of the source.

B1: H2-L2: humanized B2E5-48 IgG1, VH H2 (SEQ ID NO: 13), VL L2 (SEQ ID NO: 7) (antibody, V domains shown)
VH: QVQLVQSGAEVKKPGASVKVSCKASGYTFTNYWMHWVRQAPGQGLEWMGEINPTNGGTDYNEKFQGRVTMTVDKSTSTAYMELSSLRSEDTAVYYCTIYTTALDYWGQGTLVTVSS
VL: EIVLTQSPATLSLSPGERATLSCRASSSVGYMYWYQQKPGQAPRPLIYVTSNRATGIPARFSGSGSGTDYTLTISSLEPEDFAVYYCQQWSSNPPTFGQGTKLEIK
modifications: Variable Region of Heavy Chain 2 (Humanized B2E5-48); Variable Region of Light Chain 2 (Humanized B2E5-48)
B2: 232aa: mouse antibody-derived Eval-CAR-T with spacer length 232aa (SEQ ID NO: 63) (protein)
chain: EPKSSDKTHTSPPCPAPEFLGGPSVFLFPPKPKDTLMISRTPEVTCVVVDVSQEDPEVQFNWYVDGVEVHNAKTKPREEQFNSTYRVVSVLTVLHQDWLNGKEYKCKVSNKGLPSSIEKTISKAKGQPREPQVYTLPPSQEEMTKNQVSLTCLVKGFYPSDIAVEWESNGQPENNYKTTPPVLDSDGSFFLYSRLTVDKSRWQEGNVFSCSVMHEALHNHYTQKSLSLSLGK
modifications: Hinge region:232aa

Experiments:
[1] = system: Human glioma stem cells (hGIC); assay: Cytotoxicity assay of B2E5-ADC against glioma (MTT); format: cell-based
Description: Human glioma stem cells (hGIC) were inoculated in a 96-well plate in an amount of 1000 cells per well. […] Then, 5 μl of MTT (5 mg/ml, Wako Pure Chemical) was added to each well, followed by culturing for 2 hours in a CO2 incubator at 37° C. After the culture liquid was discarded, 90 μl of DMSO was added, and after the cells were dissolved, the absorbance (570 nm) was measured by using a benchmark (Bio-Rad).
Note that as a positive control (100%), a measured value in a well in the absence of the antibody was used. In addition, as a negative control (0%), a measured value obtained by adding 5 μl of 1% TritonX100 to a well in the absence of the antibody was used.

[2] = system: hEva1-mouse Fc; assay: Surface plasmon resonance kinetics analysis (BiaCore T200, single-cycle); format: binding, human; settings: SPR, antibody captured 5 nM, analyte hEva1-mouse Fc 1-250 nM, HBS-EP+ pH 7.4
Description: The dissociation constants and association constants of the humanized antibodies and the like were analyzed by using surface plasmon resonance (SPR, product name: BiaCore T200 (manufactured by GE healthcare)).
Specifically, first, human IgG capture antibodies were immobilized on a CM5 chip by an amine coupling method. This immobilization was conducted in both reference cells and active cells. Then, the kinetics analysis on the anti-Eval antibody and hEva1 was conducted by a single-cycle method using the following measurement conditions.
• Sample compartment temperature: 10° C. • Running buffer: HBS-EP+buffer, pH 7.4 • Capturing molecule: Human IgG antibody, reference & active cells • Ligand: Various antibodies 5 nM, active cells only • Analyte: hEva1-mouse Fc1, 5, 25, 125, 250 nM, reference & active cells • Regeneration buffer: 3M MgCl2, reference & active cells • 3 cycles of Blanks (Analyte zero concentration)

[3] = system: various tumor cell lines (Eval positive and Eval negative); assay: Cytokine production of Eval-CAR-T co-cultured with tumor cell lines (intracellular staining, flow cytometry); format: cell-based, human; settings: co-culture 1:1, 6 hours, Day 17 cells
Description: Next, the cytokine production capacity of the Eval-CAR-T using the anti-human Eval mouse antibody sequence was analyzed. Specifically, CAR-T prepared as described above was cultured until day 17, and the cells were co-cultured with various main cell lines in 1:1. After co-culturing for 6 hours, immobilization and intracellular staining (BD cytofix/cytoperm buffer) were conducted to stain the cells with IFN-gamma (IFN-γ).
The experiment was conducted by using the above-described Eval-CAR-Ts at Day 17. Specifically, the Eval-CAR-Ts were co-cultured with tumor cell lines in 1:1, and the cells were immobilized and stained in the same methods as described above after 6 hours, and intracellular IFN-gamma and IL-2 were evaluated with flow cytometry.
The experiment was conducted by using hEva1-CAR-Ts at Day 17. Specifically, hEva1-CAR-Ts were co-cultured with tumor cell lines in 1:1, and the cells were immobilized and stained in the same manner as described above after 6 hours, and intracellular IFN-gamma and IL-2 were evaluated with flow cytometry. These figures show the percentages at which the cytokine was positive among the CD8 positive cells.
The experiment was conducted by using the above-described hEva1-CAR-Ts at Day 17. Specifically, the hEva1-CAR-Ts were co-cultured with tumor cell lines in 1:1, and the cells were immobilized and stained in the same manner as described above after […], and intracellular IFN-gamma and IL-2 were evaluated with flow cytometry. These figures show the percentages at which each cytokine was positive among the CD8 positive cells.

[4] = system: Eval-positive HuCCT-1; assay: Amplification of Eval-CAR-T after antigen stimulation (co-culture with irradiated Eval-positive HuCCT-1); format: cell-based, human
Description: Eval-positive HuCCT-1, was irradiated with a radioactive ray of 100 Gy, and was co-cultured with the CAR-Ts in 1:1, and the amplification efficiencies of these were analyzed. In FIG. 3J, amplification efficiencies in time series are shown. In FIG. 3K, the amplification factors at Day 4 were plotted.
In the same manner as described above, Eval-positive HuCCT-1, was irradiated with a radioactive ray of 100 Gy, and was co-cultured with the CAR-T-cells in 1:1. Then, 50 U/ml of IL-2 was added once every three days, at Day 1, 4, and 7, followed by culturing. In FIG. 3L, the respective amplification efficiencies in time series are shown. In FIG. 3M, the amplification factors at Day 18 were plotted.
In the same manner as described above, Eval-positive HuCCT-1, was irradiated with a radioactive ray of 100 Gy, and was co-cultured with hEva1 CAR-T-cells in 1:1.
In the same manner as described above, Eval-positive HuCCT-1, was irradiated with a radioactive ray of 100 Gy, and was co-cultured with hEva1-CAR-Ts in 1:1.

hEva1-mouse Fc, sequence (O60487 27-154 limits assumed): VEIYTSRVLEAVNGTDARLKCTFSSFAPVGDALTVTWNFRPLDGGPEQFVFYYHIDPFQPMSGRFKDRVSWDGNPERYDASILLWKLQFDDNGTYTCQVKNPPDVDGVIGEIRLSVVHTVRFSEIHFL

Row | Molecule | cytotoxic activity against hGIC [1] | ka [2] [M⁻¹ s⁻¹] | kd [2] [s⁻¹] | cytokine production (intracellular IFN-gamma and IL-2) [3] | amplification efficiency after Eval stimulation ([4]; 50 U/ml IL-2 at Day 1, 4, 7, co-culture 1:1 with HuCCT-1 irradiated 100 Gy) | amplification efficiency after Eval stimulation ([4]; absence of IL-2, co-culture 1:1 with HuCCT-1 irradiated 100 Gy)
1 | B1 | no cytotoxic activity | 19720 | 0.009201 |  |  | 
2 | B2 |  |  |  | most excellent cytokine production capacity | cell amplifications tended to be better | higher cell amplifications; also recorded: most excellent in cell growth and cytokine production
